Test results published in the DeepSol protein solubility set.

test: soluble on expression in E. coli; label from the status in PepcDB or PDB records

Row | Sequence | soluble on expression in E. coli
1 | MGSDKIHHHHHHVGYPRDFQLNYATLFSVSPLVIDWGSYSQIEAEMRLFQAAAPGKYAYYHLLSGLDLPLANQDEIHAFFAAHPGKEFITYSSQKNGAQLLARVQKYHFTHNFRQPNKAMRLFRKIEKAEQRVFPVRKKFAGTLAFGSNWVSLENDLVQVLLREDDRIRTMFARGFLVDELLVPTMLNIYPEFKDRIYYDRPVHDRPEEFQGSLRYINWWDGSPYVWREKDYETLLAARRQGHLFSRKFDAEVDKAIIDKIAGQLLEIK | not soluble
2 | MAPINGIRDDDAASIRLRDSFRDEVSKRMGELLLKGQTMLDEYCPTCSGILMEDRALVRRCVTCELFREKSSVIVGEVSLQDEDLNEAVNNKIPTPAAPVNKPAKKAVLQKSAPAKKKEAVPAAAEPSSSDTIESATTAVLQKLEWATDRLNSTEEVARVMDFLSVIQKSAETLKALRI | not soluble
3 | MGSDKIHHHHHHLSFIIRKALLTDVAAIVQLERAHVDDELLGSNSQLHAHSFTKSEVSQLINQHWFIVAEEQGVIIGYVMAAKWSFFSAQPLYRHIIQKLKFADLQGQALSTTNTCQYGPVWIQESKRGQGVFSALVTELKKQVADTFPFMVTYVAADNARSLAAHQQKAAMTEIDQFSFEQRDYCLLATTNIT | not soluble
4 | MDLIGLRIRNIRKIKQLTLKEAAKGIISVPYLANIENGVKVASFETLMHIAKRLEIPEEALLIGNEDLNKELLQELKQIFDLLVFSNTKEAGDRLDQIAANVDLLCESPVIELSFYWLQAGFYYKTWEFSKAREIERKYLNSNEKRVVESFPPDLLSYYYYGQAVKHSHATCDYQLAVEYWEKSIDLTDKAAFQVVFQVGLCINYICLNNYEPALKHIECAWNLIKRFPSKDQERITAILYLYGYINFQIGFMTEAKRKFEEVLVFFNMYPEAKTMYSFLVRFKLAEIERVEGNHELFDEKIVCLYEELMAHEASEIGFNNNDYLVITELMVIFAEQGSVLEASNLLAIINKVTEQVMEINFFVTYTETLLLYHQNKQSSYEKKMLDLLKKIDESNDPALIERVKKHASKHFADSTKYKMAYNILA | not soluble
5 | MGSDKIHHHHHHMTSVEAFRGLYYPNKIGRLCFLSLEEVMGQNGVKALLRLADLQQYIDAYPPNDLKREFPFEAISKYSVALGTMYGPRGARGLELRAGRVAFSLGLKEFGPLLGMADLALKLMPITMKLKIVLNATAQTFDRFSDQSSHVEEERGRFVYHITRCSNCITRPEPGPVFYIARGILEEATAWVSGGRRFAVEQLSCMGQGNCSSCAFAIGKDPLE | not soluble
6 | LVERDSFVNALRESERRYRNIIETASEGILIIDSEVRISYANKKMTDMLGCPLEEVTGRKMCDFVSEESKDIVKLNQKRRRQGINDSYELKLVCKDGSSLWALVNAKSLFDKDGKFMGSISLLTDIT | not soluble
7 | MTKVTEHLEKQLAENRVKQEEARRAREEEKQRSDNAFNNAERAFERKLEEQRKENQENQKELELEMDNSRLKHEMLYREKQKEHEDVMGAMRNASSAERSAAANMHEKELNLLRKTHESEMKNCEVQMEAIRQKGEREVRDVEDQMAKLHLERGAELDKHHKKMLKMVEKSHEDCTREKVKQHALKMLEMKNEGQRKAIEHKIVMEKLEQARGMSQRLAVNEANREVYRLFMAIMEPVNEARSNLGDIKALCDNNGEDYEDSDTACAEYYSSGIGNSRSIFDIRTNAFRDFVLNQPNCDHELVIACQTAINSMKKPMESTTIRSACTTLPRFMGEQRHLRITAILQNIDDLTSTLEAISDDVRLNFVSWKQLEIVEAVVEQKTIEKE | soluble
8 | MPALDLIRPSVTAMRVIASVNAEFARELKLPPHIRSLGLISADSDDVTYIAADEATKQAMVEVVYGRSLYAGAAHGPSPTAGEVLIMLGGPNPAEVRAGLDAMVANIENGAAFQWANDAENTAFLAHVVSRTGSYLSSTAGITLGDPMAYLVAPPLEATYGIDAALKSADVQLVTYVPPPSETNYSAAFLTGSQAACKAACNAFTDAVLEIARNPIQRA | not soluble
9 | QTVARKCSLTGEWDNDLGSIMTIGAVNDNGEFDGTYITAVADNPGNITLSPLLGIQHKRASQPTFGFTVHWNFSESTSVFVGQCFVDRSGKEVLKTKWLQRLAVDDISDDWIATRVGNNDFTRQHTVEE | soluble
10 | MGSDKIHHHHHHMGKKYDVYGVGNALVDIEYEVSPELLQELKIDKGVMTLLDEDSQNHILENLKNLHCHKSCGGSAANTMVAISQLGGKAFYSCKVANDEFGDFYIEDLLNSQVDTNLKNGDRQSGITGKCLVLVTPDADRTMNTFLGITEKFSTQELVSSALADSEYIYIEGYLVTSPTAKEAAIKAREIAEKAGVKTAMSLSDYNMVKFFKDGLLDIIGPGLDLIFANESEALELADTQDFQVAVDKLKTLSKKFAITRGSKGSVVFDGQELIEIAAPQVKAIDTVGAGDMYAGAFLYGITQSMSYEEAGKLASTAASKIVTSYGPRLKTEELKALVSA | not soluble
11 | MGSDKIHHHHHHMARLLSELQPSEFDITVVAIADTPPDVVSMLPDHVEVKHLKMTRRTALLQLGEISKIVKSTDILVCSLFHATAIGVPLGLLLQVPKLLVWQHSTSYSNQIRSAYYRLAYRAADRVLADSDAVMEMLVDSVGVPDQKISTLPIAGIDVKEYQPSKTHPSHENITVSTVGRLANVKGYDDLIRCARDIGDDLQFQIAGEGEERERLESKTPDNVNFQGMVPNEQIPQFLNNSDIYFQPSKYEGLCMAVIEAMACGLPVVASDVGGITESVVPGETGFLCRPRDIDCFSERLQQLSENPALRKQMGTAGRKRVISEYSQKALARQFRKAIDQTETV | not soluble
12 | MIFEVPIDHFPASSQQVSKTREHKPLRLSTVSLHSKEVNAAVAPLSPSVRRSQFNFSSEVTKSALPKVRASIPPLKRALTSPALPVQHLNLNLVRKGSNPSSQTSRNNSVTDLLKSELFKMPSRLLSTAVSLHQLA | not soluble
13 | MGSDKIHHHHHHDGDDMSSCSSHSSFGSEYSEENKVNCTIDNFPVQAIALERCDGTLDSLFTKENLAMKRPQLRSAMFQIVMSLRVLQKAFRFTHNDLHTNNVVWCATDRKYLFYKHNSKYYRVPTFGRIFKIIDFGRAIYRFRGETMCSDSYHPSGDAGSQYNCEPYFNPNKPLLEPHFGFDLARLGCSLYELVDAEDVDDNGIINEEKLGDVERMIVSWCRDDKGRNILFKRDGDERYPGFKLYKMIARTSHDHTPEKMLAGYVFDTYLMAAKKCKKQERLMDVDAIPDYTEVVVGGDGKEVNATS | not soluble
14 | MGSDKIHHHHHHSGEKKESASEKGVETVLPDTKNEVSVMTLKKQIFNHELVSNGKISARGMADLRFESGEVIAHIWVKNGDRVRKGQKLAELDKFKLDNQLSQSEDALKKSELELRDVLISQGYPADDISQVPEETMKLAKVKSGYDQSKSQYEMSKYNAEHATLTAPFDGVVANLFSKPYNLASTSDVFCTVIDMQGMEVDFTVLESELPLIKNGDKVVIKPYSDAATVHEGSISEINPLVDDKGMVKVKARVNGAGKLFSGMNVRVSVHRSLGEQLVIPKSAVVLRSGKQVVFTLKDGKMAQWNYIHTALENADSYSVADGLTEGDTVIVSGNINLAHEAPVTIIE | not soluble
15 | QKKDTSNHFHVFVGDLSPEITTEDIKAAFAPFGRISDARVVKDMATGKSKGYGFVSFFNKWDAENAIQQMGGQWLGGRQIRTNWATRKPPAPKSTYESNTKQ | soluble
16 | MDNKIVYVVSDSVGETADLVVRAAMGQFPFAPDIRRVPYVEDTGTLKEVISIAKSNQALICFTLVKPDMRQYLVTEAAKEGVEAYDIIGPLIDQIEEITGQVPRYEPGVVRRLDEEYFKKIEAIEFAVKYDDGRDARGILKADIVLIGISRTSKTPLSQYLAHNKRLKVANVPLVPEVDPPEELYQVAKEKCFGLKITPEKLNHIRKERLKSLGLSDGATYANINRIKEEIDHFENVVSKINCQVIDVSNKAIEETANIIVNAVQNQKMFMAGDPLEHHHHHH | soluble
17 | MAHHHHHHMGVGFQSKKLQNFCHSGAGEMCALENCIPRWGSFPCNAPGLTPVYELSSFENVELPLIFQKSNIGDLLASTSDSVGQLNGFQARHSNTEGIKSQVSYTSVALSTTNRENLFGWVDCAALPLCSSSTAGASILLVTLLTRESRGKSCMCILDDLVCQLSNGPFNWGCGGDCHDLISISLPSEPRNHAACPIILPIAKLSRKEIWLREAAPKMDVETIIYEGDNQQHLVDDVANGTNAGSCAVMEAGCRPETALGPENVKYGDNESVTQCEVTVDITPSTEPSARCLHFSECTTPVSSNRSFMEPIPLSNMESKALRCRKFDGTSYEVLRRRAHSDALSLILKKYSEHLERVSQTSGRRGLDAHC | soluble
18 | MSDVPDDANAGCPGTGSAGAGKASGCAGCPNQGSCATGQGPPPDADVPKIQDRFSRIKHKILILSGKGGVGKSTLTSNLARALASDPSKQVAILDVDICGPSQPRMMGVEDEEVHNSADGWTPVGIQPNLTLMSIAFLLGDKNDAVIWRGARKNGMIKQFLKDVDWGEVDYLLIDTPPGTSDEHISLVQFLLQAGPLDGALIVSTPQEVSLLDVRKEVSFCVKTKVPILGVVENMARFVCPNCAHTTLLFPTSTGGAEQMCKDSNLELLAQLPLEPALAKALDNGEDFFETNPDSTLAKSFLDLAEKVKAKLV | not soluble
19 | MPTYKLTYFNSRFYAEPARILFHLAGVPFEDIRIIHGDGTWEQIKDKTPFGQVPVLNINGFEIPQSTAIIRYLATKFGYAGKTPEEQAWADAICDQVRDFMAVPFKDIVVAKRVGKTEEEVSQLINEGFVPGRDAYFKIITRILEKNKSGFLVGDGITFADIVVVENLTTLQKNQLFEASKYPELAALREKVYAIPAIKKWVEARPDTQY | not soluble
20 | MGSDKIHHHHHHMDVLVVGATGTLGRQIARRALDEGHRVRCLVRSPKRGNFLREWGCDLVRGDLTQPESLTFALEGIEAVIDAATTRSTDSLSCYDVDWQGKVNLIKAATEAGVQRFVFCSIIDAEKHRDVPLMDIKYCTEEFLRQSGLNYTILRLAGFMQGLIAEFAIPVLEGRTAFITQDSDPIAYLSTLDIARFAVAALTTPATEKQTLPVVGPKAWSGLEIFRLCERLSGKETKIARLPLATVSAMKRFFRFFQWGWNIADRLAFSEVMACGRPFTADMAATYTAFGIDPAEITGLESYLNDYFSVMLRRLKELEFDQKKDKKKKVPF | not soluble
21 | MAHHHHHHMMRIPPLVVCGPSGVGKGTLIKRLLGEFPSLFRFSISCTTRKKREKEMDGVDYYFVDKEDFEQKIKEEQFLEYDNYANNFYGTLKSEYDIAAGENKICLLEMNINGVKQLKESKHIEDGIYIFVKPPSIEILLKRLKNRNTENPEEIKKRMQELTREMDEADKVGFNYIIVNDDLARTYGELRKYLLGSYPQLGGA | soluble
22 | MEEKTILAQILQVLDLYAADMRKQFEALHEKFDSLQRQVQALNEKTDEMDKRIEEMDGRFERQIAQLERTVNERFERLEAKLGHIRVELVETQETVDFHSVKIAQHDRKIRHLLHAR | not soluble
23 | MKSPAPSRPQKMALIPACIFLCFAALSVQAEETPVTPQPPDILLGPLFNDVQNAKLFPDQKTFADAVPNSDPLMILADYRMQQNQSGFDLRHFVNVNFTLPKEGEKYVPPEGQSLREHIDGLWPVLTRSTENTEKWDSLLPLPEPYVVPGGRFREVYYWDSYFTMLGLAESGHWDKVADMVANFAHEIDTYGHIPNGNRSYYLSRSQPPFFALMVELLAQHEGDAALKQYLPQMQKEYAYWMDGVENLQAGQQEKRVVKLQDGTLLNRYWDDRDTPRPESWVEDIATAKSNPNRPATEIYRDLRSAAASGWDFSSRWMDNPQQLNTLRTTSIVPVDLNSLMFKMEKILARASKAAGDNAMANQYETLANARQKGIEKYLWNDQQGWYADYDLKSHKVRNQLTAAALFPLYVNAAAKDRANKMATATKTHLLQPGGLNTTSVKSGQQWDAPNGWAPLQWVATEGLQNYGQKEVAMDISWHFLTNVQHTYDREKKLVEKYDVSTTGTGGGGGEYPLQDGFGWTNGVTLKMLDLICPKEQPCDNVPATRPTVKSATTQPSTKEAQPTP | not soluble
